Data reported in patent US7271245B2, “Methods and compositions for inhibition of metastasis” (The Scripps Research Institute, priority 2004, dated 2007).

Legend:
[1] = target: T1, alpha IIb beta 3 (Homo sapiens, UniProt P05106+P08514); test: Flow cytometry, binding to other RGD-recognizing integrins
T1 construct: M21-LIIb cells (αIIbβ3, no αv integrin); expressed in transfected cells; host or cells: M21-LIIb human melanoma cells
Protocol: (§1) Flow cytometry. scFv binding to human tumor cells was analyzed by flow cytometry, initially with cloned scFv phage and then with purified scFv protein. Per sample, 2×10^5 tumor cells were blocked with goat serum and incubated either with scFv phage (2-5×10^10) (1 h at RT) followed by mouse anti-M13 mAb (Serotec) (30 min on ice) and goat FITC-anti mouse (Pierce) (30 min on ice), or with purified scFv (1.25 to 40 μg/ml, routinely 10 to 15 μg/ml) (45 min on ice), followed by mouse anti-FLAG mAb M2 (Sigma) (30 min on ice) and goat FITC-anti mouse. Binding/washing buffer was TBS with or without divalent cations (1 mM Ca^2+, 1 mM Mg^2+, 0.2 mM Mn^2+). Alternatively, tumor cells were washed in 10 ml of plasma (prepared freshly from human blood anticoagulated with 50 nM D-Phe-D-Pro-D-arginyl chloromethyl ketone, PPACK, Felding-Habermann et al., J. Biol. Chem. 271: 5892-5900, 1996), resuspended in plasma and then incubated sequentially, without washing, with purified scFv (45 min on ice), followed by anti-FLAG M2 (30 min on ice) and FITC-anti mouse (30 min on ice). All samples were counter stained with propidium iodide (PI) and analyzed on a Becton-Dickinson FACScan, with live gate set to exclude PI positive cells.
(§2) To generate therapeutic reagents that specifically react with activated αvβ3, a phage display library of single chain antibody fragments (scFv) was exploited. This library was derived from cancer patient blood lymphocyte cDNA libraries and allowed us to test the hypothesis that the expressed immune repertoire contains antibodies that recognize integrin αvβ3, and distinguish between its activated and non-activated forms. Mao et al., Proc. Natl. Acad. Sci. U.S.A 96: 6953-6958, 1999. A subtractive panning approach was designed based on variants of MDA-MB 435 human breast cancer cells. […] Apparently, these cells are selected during metastasis, as variant cells isolated from lung and bone metastases in immune deficient mice express constitutively activated αvβ3. To establish a cell population that uniformly expresses non-activated αvβ3, MDA-MB 435 parental cells were cloned by limiting dilution, and clones tested for αvβ3 functionality. […] A cell line, MDA-MB 435 Lung-Lung, was established which expressed αvβ3 in a constitutively activated form. This variant stems from a lung metastase of an immune deficient mouse whose mammary fat pad had been injected with parental MDA-MB 435 cells. […] After 5 rounds of subtracting the phage library on Parent Combo cells and panning on Lung-Lung cells, scFv clones were analyzed by flow cytometry for their ability to bind integrin αvβ3 on human tumor cells, and to distinguish between the activated and non-activated forms of the receptor (FIG. 1). […]

[2] = target: T2, integrin αvβ5 (Homo sapiens, UniProt P06756+P18084); test: as above
T2 construct: UCLA-P3 lung adenocarcinoma cells (αv integrins, but no αvβ3); endogenous in cells; host or cells: UCLA-P3 human lung adenocarcinoma cells
Protocol: as §1, §2

[3] = target: T3, α5β1 (Homo sapiens, UniProt P05556+P08648); test: as above
T3 construct: endogenous in cells
Protocol: as §1, §2

[4] = target: T4, αvβ1 (Homo sapiens, UniProt P05556+P06756); test: as above
T4 construct: UCLA-P3 lung adenocarcinoma cells (αv integrins, but no αvβ3); endogenous in cells; host or cells: UCLA-P3 human lung adenocarcinoma cells
Protocol: as §1, §2

[5] = tested on: matrix deprived BMS breast cancer cells; test: Apoptosis of matrix deprived breast cancer cells; type: cell-based, human; details: 3.7 μM scFv, ultra-low-adhesion plates, 20 hrs
Protocol: FIGS. 3A, 3B, 3C, 3D, 3E. scFv Bc-12 and Bc-15 inhibit αvβ3 mediated adhesive breast cancer cell functions. (A) Adhesion of BMS human breast cancer cells to fibrinogen (Fg), vitronectin (VN) or type I collagen (Col I) in the absence or presence of 3 μM Bc-12, Bc-15 or their RGE mutants Mut-12, Mut-15, compared to 200 μM GRGDSPK peptide (SEQ ID NO: 11). Protein coating concentrations: 10 μg/ml (VN, Col I) or 20 μg/ml (Fg). Adhesion time: 30 min at 37° C. (B) Effect of scFvs on haptotactic BMS cell migration toward a fibrinogen substrate (16 hrs at 37° C. in transwell chambers with or without 2 μM Bc-12, Bc-15 or their RGE mutants Mut-12 or Mut-15, compared to 200 μM GRGDSPK peptide) (SEQ ID NO: 11). (C) Effect of scFvs on breast cancer cell arrest during blood flow. Metastatic BMS cells, labeled with hydroethidine, were suspended in human blood (anticoagulated with 50 nM PPACK) and perfused over a collagen I matrix at a venous wall shear rate of 50 s^−1. Under these conditions, breast cancer cells arrest by αvβ3 mediated binding to adherent, thrombus forming platelets. Tumor cell adhesion was quantified by image acquisition at 30 predefined positions during blood flow. Left: representative images of platelet signal (thrombi, green fluorescence) and tumor cell signal (red fluorescence) at identical x,y positions. […]

T3 sequence (P08648 42-894 limits assumed): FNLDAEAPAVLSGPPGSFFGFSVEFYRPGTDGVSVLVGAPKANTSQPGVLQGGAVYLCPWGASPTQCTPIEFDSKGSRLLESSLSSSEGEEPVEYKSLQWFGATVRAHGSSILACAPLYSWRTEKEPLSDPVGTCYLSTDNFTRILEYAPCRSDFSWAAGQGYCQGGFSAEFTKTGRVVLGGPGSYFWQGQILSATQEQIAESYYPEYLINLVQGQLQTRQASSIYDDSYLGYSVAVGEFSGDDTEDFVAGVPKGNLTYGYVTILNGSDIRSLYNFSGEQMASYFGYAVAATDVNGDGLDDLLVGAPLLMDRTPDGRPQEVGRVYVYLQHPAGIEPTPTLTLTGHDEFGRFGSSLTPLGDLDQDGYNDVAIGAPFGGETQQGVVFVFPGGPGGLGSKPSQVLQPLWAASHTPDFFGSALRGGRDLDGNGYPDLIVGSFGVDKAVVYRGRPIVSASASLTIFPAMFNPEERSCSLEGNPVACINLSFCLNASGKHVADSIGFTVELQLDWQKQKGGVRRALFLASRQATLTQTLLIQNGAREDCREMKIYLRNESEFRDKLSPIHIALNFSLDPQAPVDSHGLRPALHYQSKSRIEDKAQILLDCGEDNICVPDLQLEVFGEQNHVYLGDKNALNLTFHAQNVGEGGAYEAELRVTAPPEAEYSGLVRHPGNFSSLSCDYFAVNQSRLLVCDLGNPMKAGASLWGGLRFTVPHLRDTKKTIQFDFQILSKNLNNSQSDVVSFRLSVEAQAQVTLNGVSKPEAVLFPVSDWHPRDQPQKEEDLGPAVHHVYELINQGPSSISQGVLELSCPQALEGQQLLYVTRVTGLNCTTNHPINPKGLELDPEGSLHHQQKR
T3 sequence (P08648 895-1049 partner limits assumed): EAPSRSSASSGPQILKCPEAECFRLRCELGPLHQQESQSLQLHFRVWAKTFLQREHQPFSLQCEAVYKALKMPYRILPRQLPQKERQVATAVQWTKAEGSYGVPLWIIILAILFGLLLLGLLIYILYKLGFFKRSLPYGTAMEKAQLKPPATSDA
T3 sequence (P05556 21-798): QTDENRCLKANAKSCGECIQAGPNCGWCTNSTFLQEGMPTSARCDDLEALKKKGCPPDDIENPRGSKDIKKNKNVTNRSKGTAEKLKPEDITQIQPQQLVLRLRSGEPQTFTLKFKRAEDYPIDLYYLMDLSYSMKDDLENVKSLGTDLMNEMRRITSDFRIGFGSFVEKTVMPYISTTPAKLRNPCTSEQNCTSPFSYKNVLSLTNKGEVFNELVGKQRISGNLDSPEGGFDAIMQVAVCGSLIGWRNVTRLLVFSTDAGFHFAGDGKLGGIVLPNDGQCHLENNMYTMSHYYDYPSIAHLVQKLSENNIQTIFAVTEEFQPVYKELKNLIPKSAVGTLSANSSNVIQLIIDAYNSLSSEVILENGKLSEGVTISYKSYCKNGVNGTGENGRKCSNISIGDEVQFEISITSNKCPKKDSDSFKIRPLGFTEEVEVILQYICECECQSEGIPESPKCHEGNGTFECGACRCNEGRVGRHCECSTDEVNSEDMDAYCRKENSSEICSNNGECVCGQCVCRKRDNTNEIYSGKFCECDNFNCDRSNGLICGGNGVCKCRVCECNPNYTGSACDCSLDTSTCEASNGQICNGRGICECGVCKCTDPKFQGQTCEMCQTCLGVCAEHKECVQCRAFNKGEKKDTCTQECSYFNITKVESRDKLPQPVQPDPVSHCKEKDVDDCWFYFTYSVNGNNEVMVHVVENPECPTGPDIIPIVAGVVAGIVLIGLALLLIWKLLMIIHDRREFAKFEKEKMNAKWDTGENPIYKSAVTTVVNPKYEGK
T2 sequence (P06756 31-889 limits assumed): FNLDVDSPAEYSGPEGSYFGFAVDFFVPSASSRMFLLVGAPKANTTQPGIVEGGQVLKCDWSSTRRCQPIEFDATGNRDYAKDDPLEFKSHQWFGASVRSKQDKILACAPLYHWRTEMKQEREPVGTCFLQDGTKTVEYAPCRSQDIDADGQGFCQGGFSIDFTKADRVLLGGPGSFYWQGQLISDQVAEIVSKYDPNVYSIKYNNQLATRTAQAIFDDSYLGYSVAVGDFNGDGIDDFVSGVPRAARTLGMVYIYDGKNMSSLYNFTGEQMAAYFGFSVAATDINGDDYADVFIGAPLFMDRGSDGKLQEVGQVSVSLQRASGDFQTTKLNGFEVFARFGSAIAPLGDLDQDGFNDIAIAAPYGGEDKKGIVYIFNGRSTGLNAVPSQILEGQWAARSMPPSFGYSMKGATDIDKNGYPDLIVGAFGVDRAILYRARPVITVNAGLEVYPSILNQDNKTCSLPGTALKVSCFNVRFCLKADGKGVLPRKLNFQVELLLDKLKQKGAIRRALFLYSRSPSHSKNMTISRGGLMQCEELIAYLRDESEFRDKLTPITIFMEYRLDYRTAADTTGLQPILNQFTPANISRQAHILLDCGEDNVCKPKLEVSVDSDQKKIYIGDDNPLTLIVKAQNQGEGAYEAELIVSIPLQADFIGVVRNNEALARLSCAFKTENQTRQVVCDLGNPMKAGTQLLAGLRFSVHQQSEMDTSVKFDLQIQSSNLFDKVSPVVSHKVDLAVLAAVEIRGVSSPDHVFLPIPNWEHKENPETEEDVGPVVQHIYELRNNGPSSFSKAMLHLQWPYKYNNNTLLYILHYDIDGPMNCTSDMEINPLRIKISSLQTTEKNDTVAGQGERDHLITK
T2 sequence (P06756 891-1048 partner limits assumed): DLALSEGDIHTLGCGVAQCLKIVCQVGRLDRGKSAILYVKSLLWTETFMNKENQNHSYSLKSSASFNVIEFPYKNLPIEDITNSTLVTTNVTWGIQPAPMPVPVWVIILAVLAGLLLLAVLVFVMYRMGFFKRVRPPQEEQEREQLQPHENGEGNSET
T2 sequence (P18084 24-799): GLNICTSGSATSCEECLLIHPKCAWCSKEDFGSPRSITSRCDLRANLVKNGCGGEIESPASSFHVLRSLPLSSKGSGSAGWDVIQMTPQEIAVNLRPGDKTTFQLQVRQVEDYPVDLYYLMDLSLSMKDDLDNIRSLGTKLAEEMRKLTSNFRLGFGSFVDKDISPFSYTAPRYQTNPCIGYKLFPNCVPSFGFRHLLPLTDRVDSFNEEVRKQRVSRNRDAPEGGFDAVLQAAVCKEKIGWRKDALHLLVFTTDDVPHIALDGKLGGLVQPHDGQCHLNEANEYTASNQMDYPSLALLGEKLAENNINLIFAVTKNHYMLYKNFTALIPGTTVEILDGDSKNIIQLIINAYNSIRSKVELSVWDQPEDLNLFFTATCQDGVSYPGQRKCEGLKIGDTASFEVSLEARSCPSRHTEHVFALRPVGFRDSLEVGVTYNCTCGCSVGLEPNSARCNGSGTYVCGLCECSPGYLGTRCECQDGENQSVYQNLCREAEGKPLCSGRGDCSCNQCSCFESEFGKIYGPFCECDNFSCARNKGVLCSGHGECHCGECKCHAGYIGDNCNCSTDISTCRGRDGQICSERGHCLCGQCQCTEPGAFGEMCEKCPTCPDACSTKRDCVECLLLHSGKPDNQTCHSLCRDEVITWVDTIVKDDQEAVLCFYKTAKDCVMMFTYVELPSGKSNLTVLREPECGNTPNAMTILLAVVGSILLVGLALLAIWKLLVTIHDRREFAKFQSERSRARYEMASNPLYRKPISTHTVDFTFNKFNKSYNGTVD
T4 sequence (P06756 31-889 limits assumed): as the sequence (P06756 31-889 limits assumed) above
T4 sequence (P06756 891-1048 partner limits assumed): as the sequence (P06756 891-1048 partner limits assumed) above
T4 sequence (P05556 21-798): as the sequence (P05556 21-798) above

B1: Bc-12: patient derived human scFv antibody against activated αvβ3 with RGD motif in CDR-H3; cDNA ATCC PTA-6303 (protein)
scFv: MAQVQLVQSGAEVKKPGASVKVSCKASGYTFSNYGITWVRQAPGQGLEWMGWINNGNTHYAQKFQGRVTMTTDTSTSTAYMELRSLRSDDTAVYYCARDPRGDDEPYWGQGTLVTVSSGGGGSGGGGSGGGGSEIVLTQSPLSLPVTLGQPASISCRSSQNLVYSDGNTYLSWFQQRPGQSPRRLIYKVSNRDSGVPDRFSGSGSGTDFTLKISRVEAEDIGVYYCMQGTHWPPRTFGQGTKVEIKRGLGGLVDYKDDDDK
- binding to alpha IIb beta 3 [1]: do not bind
- binding to integrin αvβ5 [2]: do not bind
- binding to α5β1 [3]: do not bind
- binding to αvβ1 [4]: do not bind
- viability of matrix deprived cells (apoptosis) [5]: resulted in apoptotic cell death
